Reference: patent US20160152676A1

Biological target: gp41 of HIV-1 IIIB virus (HIV-1 IIIB) (UniProt P04578)
Assay: cell-based or functional assay

How did the inhibition of HIV-1 infection in cellulo (GFP+ CEM-GFP cells, flow cytometry); concentration at which some inhibition is seen turn out when “C34-ELMO (from UniProt Q92556 553-675) (designed binder)” was run?
Its inhibition of HIV-1 infection in cellulo (GFP+ CEM-GFP cells, flow cytometry); concentration at which some inhibition is seen is 250 nM.
